Laboratory results: US20090270325A1

Columns and labels:
[1] = target: human GHR on human 293 cells stably expressing the human GHR (human) (UniProt P10912)
[2] = target: human GHR on human 293 cells stably expressing the human GHR (human) (UniProt P10912); remark: listed apart in the source

- GH-specific luciferase reporter assay (bioactivity) [1]: 10%
- concentration for the maximal response, Stat 5 luciferase-reporter assay [2]: 50 to 250 nM
Substance: hGH-GHR Chimera (75 kDa chimera) (from UniProt P01241)
